# B1: C15C9 (antibody, V domains shown)
# VH: QVQLQQWGTGLLKPSETLSLTCAVYGGSFSGYYWTWIRQPPGKGLEWIGEINHSGTTTYNPSLKSRVTISVEKSENQFSLKLNSVTAADTAVYYCARGSRCSSASCLFYYFYYIDVWGKGTTVTVSS
# VL: not shown
# B2: C107A1 (antibody, V domains shown)
# VH: QVQLVESGGGVVQPGRSLRLSCAASGFTFSSYGMHWVRQAPGKGLEWVAVISYDGSNKYYADSVKGRFTISRDNSKNTLYLQMNSLRAEDTAMYYCAKDGSGSYSWFDPWGQGTLVTVSS
# VL: EIVMTQSPATLSVSPGERATLSCRASQSVSSNLAWYQQKPGQAPRLLIYGASTRATGIPARFGGSGSGTEFTLTISSLQSEDFAVYYCQQYNNGFTFGPGTKVDIK
# B3: C89A5 (antibody, V domains shown)
# VH: QVQLVESGGGVVQPGRSLRLPCAASGFSFSGYAMHWVRQAPDKGLEWMAVISFDGSTKTYADSVRGRFTISRDNSKNTLYLQIHTLRTEDTAVYYCARGGGGGDGAFDNWGGGTMVTVSS
# VL: DVVMTQSPLSLPVTLGQPASISCRSSQSLVYSDGNTYLIWFQQRPGQSPRRLIYKVSNRDSGVPDRFSGSGSGTDFTLKISRVEADDVGVYYCMQTTHWPYTFGQGTKLEIK
# B4: C15E7 (antibody, V domains shown)
# VH: QVQLQQWGAGLLKPSETLSRTCAVYGGSFSGYYWTWIRQPPGMALEWIGDINHGGVTNYNPSLKSRVTISVDTSKNQFSLRLTSVTAADTAVYYCARRLLGDPRPASSSLSLRRVSYMDVWDKGTTVTVSS
# VL: DIQMTQSPSSMPASVGDRVTITCRASQSISNYLNWYQQEPGRAPKLLIYGASSLQSGVPSRFGGSGSGTEFTLTITALQPEDSATYYCQQIHGAPPITFGQGTRLEIK
# B5: G32R10 (antibody, V domains shown)
# VH: EVQLLESGGGLVQPGGSLRLSCAASGFTFSRYAMSWVRQAPGKGLEWVSAISGSGGSTYYSDSVEGRFTISRDNSKNTLYVQMNSLRAEDTAVYYCAKDAGFIPLYYFDYWGQGTLVTVSS
# VL: EIVMTQSPVTLSVSPGERATLSCRASQSVSSNLAWYQQKPGQAPRLLIYGASTRATGIPARFSGSGSGTEFTLIISSLQSEDFAVYNCQQYNNWPWTFGQGTKVEIK
# B6: G32M4 (antibody, V domains shown)
# VH: QVQLVESGGGVVQPGRSLRLSCAASGFTFRSYAMHWVRQAPGKGLEWVAVISYDGSNKYYADSVKGRFTISRDNSKNTLYLQMNSLRAEDTAVYYCAKSYSGSYLAAFDIWGQGTMVTVSS
# VL: EIVLTQSPGTLSLSPGERATLSCRASQIFSSSYLAWYQQKPGQAPRLLIYGASSRATGIPDRFSGSGSGTDFTLTISRLEPEDFAVYYCQQYGSSITFGQGTRLEIK
# B7: C30A5 (antibody, V domains shown)
# VH: QVQLVESGGGVVQPGRSLRLSCAASGFTFSTYAMHWVRQAPGKGLEWVAVISYDGSNKYYADSVKGRFTISRDNSKNTLYLQLNSLRAEDTAVYYCAKSGSGHYFAPFDYWGQGTLVTVSS
# VL: not shown
# B8: C12B2 (antibody, V domains shown)
# VH: QVQLVQSGAEVKKPGSSVKVSCKASGGTFSSYAISWVRQAPGQGLEWMGGIIPIFGTANYAQKFQGRVTITADESTSTAYMELSSLRSEDTAVYYCARMDYYDSSGYYLDYWGQGTLVTVSS
# VL: EIVLTQSPATLSLSPGERATLSCRASQSVSNFLAWYQQKPGQAPRLLIYDASNRATGIPARFSGSGSGTDFTLTISSLEPEDFAVYYCLQRSNWPPRLTFGGGTKVEIK
# B9: C41N6 (antibody, V domains shown)
# VH: QVQLVESGGGVVQPGGSLRLSCAASGFTFSSYGMHWVRQAPGKGLEWVAFIRYDGSNNYYADSVKGRFTISRHNSKNTLYLQMNSLRAEDTAVYYCAKVTITIFGVVIYGMDVWGQGTTVTVSS
# VL: not shown
# B10: C163E11 (antibody, V domains shown)
# VH: QVQLVESGGGVVQPGRSLRLSCAASGFTFSIYAIHWVRQAPGKGLEWVAVVSYDGSNKYYADSVRGRFTISRDNSKNTLYLQMNSLRADDTAVYYCARDSAGGYSYLFDYWGQGTLVTVSS
# VL: not shown
# B11: C107A2 (antibody, V domains shown)
# VH: EVQLVESGGGLVQPGGSLRLSCAASEFTVNNNYMSWVRQAPGKGLEWVSIIYSGGSTYYADSVKGRFTISRDNSKNTLYLQMNSLRAEDTAVYYCARNHITMVRGVIKYQDYWGQGTLVTVSS
# VL: not shown
# B12: C18C8 (antibody, V domains shown)
# VH: EVQLVESGGGLVQPGRSLRLSCTTSGFTFGDYAMSWVRQAPGKGLEWVGFIRSKAYGGTTEYAASVKGRFTISRDDSKSIAYLQMNSLKTEDTAVYCCTRGLKVEPYYFDYWGQGTLVTVSS
# VL: not shown
# B13: C81A10 (antibody, V domains shown)
# VH: QVQLVQSGAEVKKPGSSVKVSCKASGGTFRSYAISWVRQAPGQGLEGMGGIIPIFGTTNYAQKFQGRVTITADESTSTAYMELSSLRSEDTAVYYCARSEWGDGYNQYYFDQWGQGALVTVSS
# VL: DIQMTQSPSSLSAFVGDRVTITCRASQSISRYLNWYQQKPGKAPKVLIYAASSLQSGVPSRFSGSGSGTDFTLTISSLQPEDFATYYCQQSYSTLTFGGGTKVEIK
# B14: C81D9 (antibody, V domains shown)
# VH: QVQLVESGGGVVQPGRSLRLSCAASGFTFSSYAMHWVRQAPGKGLEWVAVISYDGSNKYYADSVRGRFTISRDNSKNTLYLQMNSLRAEDTAVYYCARAWGGSYRGGLDYWGQGTLVTVSS
# VL: DIQMTQSPSSLSASVGYRVTITCRASQSISSWLAWYQQKPGKAPKLLIYKASSLESGVPSRFSGSGSGTEFTLTISSLQPDDFATYYCQQYNSYWTFGQGTKVEIK
# B15: G32A3 (antibody, V domains shown)
# VH: QVQLVQSGAEVKRPGASVKVSCKASGYTFTSYGITWVRQAPGQGLEWMGWISAYNGNTNYAQKLQGRVTMTTDSSTSTAYMELRSLRSDDTAVYYCARTPNSVITMIVVVTQTLDYWGQGTLVTVSS
# VL: QSALTQPASVSGSPGQSITISCTGTSSDVGGYNYVSWYQQHPGKAPKLMIYEVSNRPSGVSNRFSGSKSGNTASLTISGLQAEDEADYYCSSYTSSSTRVFGGGTKLTVL
# B16: C83A4 (antibody, V domains shown)
# VH: QVQLQESGPGLVKPSQTLSLTCTVSGGSISSGGYYWSWIRQHPGKGLEWIGYIYYSGSTYYNPSLKSRVTISVDTSKNQFSLKLTSVTAADTAVYYCASEPTFRQSSISWYHYGMDVWGQGTTVTVSS
# VL: QSALTQPASVSGSPGQSITISCTGTSSDVGRYNYVSWYQQHPGKAPKLMIYDVSNRPSGVSNRFSGSKSGNTASLTISGLQAEDEADYYCSSYTSSSTLVFGTGTKVTVL
# B17: C12I9 (antibody, V domains shown)
# VH: QVQLVQSGAEVKKPGASVKVSCKASGYTFTGYYMHWVRQDPGQGLEWMGWINPNSGVTNYAQKFQGWVTMTRDTSISTAYMELSRLKSDDTAVYYCAREVGAVAGTFYYGLDVWGQGTTVTVSS
# VL: QSALTQPRSVSGSPEQSVAISCTGTSSDVGGNNYVSWYQQHPGKAPKLMIYDVSKRPSGVPDRFSGSKSGNTASLTISGLQAEDEADYYCCSYAGSYTFGVVFGGGTKLTVL
# B18: C81E2 (antibody, V domains shown)
# VH: not shown
# VL: DIQMTQSPSSLSASVGDRVTITCRASQGISNYLAWYQQKPGKVPKLLIYAASTLQSGVPSRFSGSGSGTDFTLTISSLQPEDVATYYCQKYNSASPLTFGGGTKVEIK
# B19: C83A5 (antibody, V domains shown)
# VH: QVQLVESGGGVVQPGRSLRLSCAASRFTFSSYGMHWVRQAPGKGLEWVAVIWFDGTNKYYADSVKGRFTISRDNSKNTLYLQMNSLRVEDTAVYYCARDGAYYDRSAYYYRLKFYFDFWGQGTLVTVSS
# VL: SYELTQPPSVSVSPGQTARITCSGDALPNQYVYWYHQKPGQAPVLVIYKDSERPSGIPERFSGSSSGTTVTLTISGVQAEDEADYYCQSADSSGNIGVFGGGTKLTVL
# B20: C83B7 (antibody, V domains shown)
# VH: QVQLVQSGAEVKKPGASVKVSCKASGYTFTSYYLHWVRQAPGQGLEWMGIINPSGGSTSYAQKFQGRVTMTRDTSTSTVYMELRSLRSEDTAVYYCARDSAPRDYDFWSGYYFGVNGKGSSMDVWGQGTTVTVSS
# VL: QSALTQPPSASGSPGQSVTISCTGTSSDVGGYNYVSWYQQHPGKAPKLMIYEVSKRPSGVPDRFSGSKSGNTASLTVSGLQAEDEADYYCSSYAGSNNYVFGTGTKVTVL
# B21: C15C7 (antibody, V domains shown)
# VH: QVQLVESGGGVVQPGRSLRLSCAASGFTFSSYGMHWVRQAPGKGLEWVAVISYDGSNKYYADSVKGRFTISRDNSKNTLYLQMNSLRAEDTAVYYCAKDAYYYDSSGYYPRDYYYYYYYMDVWGKGTTVTVSS
# VL: not shown
# B22: C15C12 (antibody, V domains shown)
# VH: EVQLLESGGGLVQPGGSLRLSCAASAFTFTNYDMNWVRQAPGKGLEWVSTISGSGDITYYADFVKGRFTISRDNSKNTLNLQMNSLRADDTAVYYCAKDFARRGYNGYEEKFISMFGGVIADYGMDVWGQGTTVTVSS
# VL: EIVLTQSPTTLSLSPGERVTLSCRASQSISSYLAWYQQKPGQAPRLLIYRASNRATGISARFSGSGSGTDFTLTISSLEPEDFAVYYCQQRSNWPLTFGGGTKVEIK
# B23: C12D2 (antibody, V domains shown)
# VH: EVQLVESGGGLVQPGGSLRLSCAASGFTFSSYWMSWVRQAPGKGLEWVANIKQDGSEKYYVDSVKGRFIISRDNAKNSLYLQMNSLRAEDTAVYYCARDQRRFLEWLSYYYYMDVWGKGTTVTVSS
# VL: not shown
# B24: C93D10 (antibody, V domains shown)
# VH: QVQLVQSGAEVKKPGASVKVSCKASGYTFTSYYMHWVRQAPGQGLEWMGIINPSGGSTSYAQKFQGRVTMTRDTSTSTVYMELSSLRSEDTAVYYCARDPSSDYDFWSGWGNQYYYYGMDVWGQGTTVTVSS
# VL: DIQLTQSPSFLSASVGDRVTITCRASQGISSYLAWYQQKPGKAPKLLIYAASTLQSGVPSRFSGSGSGTEFTLTISSLQPEDFATYYCQQLNSYPFTFGPGTKVDIK
# B25: C163E6 (antibody, V domains shown)
# VH: QVQLVESGGGVVQPGRSLRLSCAASGFTFNTYAVYWVRQAPGKGLEWVAVISYDGINKYYADSVKGRFTISRDNSKNTLYLQMNSLRPEDTAVYYCARVKSGSYKGCFDYWGQGTLVTVSS
# VL: not shown
# Target: SARS-CoV-2 S ectodomain trimer, prefusion-stabilized, 2P variant (Wrapp et al., 2020) (SARS-CoV-2, Wuhan-Hu-1, UniProt P0DTC2, stabilised)
row,Binder,binding result
1,B1,binds
2,B2,binds
3,B3,binds
4,B4,binds
5,B5,binds
6,B6,binds
7,B7,binds
8,B8,binds
9,B9,binds
10,B10,binds
11,B11,binds
12,B12,binds
13,B13,binds
14,B14,binds
15,B15,binds
16,B16,binds
17,B17,binds
18,B18,binds
19,B19,binds
20,B20,binds
21,B21,binds
22,B22,binds
23,B23,binds
24,B24,binds
25,B25,binds
